We go through 28 sequences from the supplement of paper PMC9170038.

The subject of the data set is MS2 coat protein. Put plainly: apparent KD of MS2 coat protein; designed switch direction (-1 OFF switch, 1 ON switch): 1; higher = weaker reporter binding. An outline of the steps:
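Designed RNA switches with common flanks were made on Illumina chips by stalled E. coli RNA polymerase. Titration with SNAP-549-labelled MS2 coat protein doubled from 0.7 or 1.5 nM up to 3 µM. Apparent KD is each design's median over clusters after curve-fitting normalised fluorescence.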

Where [1] appears, read: input ligand: microRNA oligo, concentration not stated.
Where [2] appears, read: Eterna round: R95, input ligand: microRNA oligo, concentration not stated.
[3] abbreviates: Eterna round: R95, input ligand: FMN 200 uM.
Where [4] appears, read: Eterna round: R95, input ligand: none.

Regarding “AGCCGAGACACAGGAUAUAGAUGUUUACAUGAGGAUCACCCAUGUAGCAACACGUGGUAGUGAUUCUAGAAGGGUGCUCGGCGC [Omei SS(NG)2 Cv11] (Eterna round: R96, puzzle: Same State NG 2)”, the “apparent KD of MS2 coat protein” value (input ligand: FMN 200 uM) was 36.3 nM, the “apparent KD of MS2 coat protein” value under setting [1] was found to be 116 nM and the “apparent KD of MS2 coat protein” value (input ligand: none) is 167 nM.

Regarding “AGCCGAGACUGAGGAUAUUUGAAUCUACAUGAGGAUCACCCAUGUAGCAACACGUGGUAGUGAUCGAAGAAGGCAGCUCGGCGC [MOD of Omei's SS(NG)2 Cv2] (Eterna round: R96, puzzle: Same State NG 2)”, the “apparent KD of MS2 coat protein” value runs as follows: (input ligand: FMN 200 uM) 22.6 nM; under setting [1], 45.7 nM; (input ligand: none) 57 nM.

“AGCGGAUAACAGUAGGAUAUGGCCAACGCCACAUGAGGAUCACCCAUGUCGUACCGGCACCUGGACUAGAAGGACUGCCUCCCGC [Ariscedi] (puzzle: Same State 2)”: the “apparent KD of MS2 coat protein” value under setting [2] was determined as 22.8 nM.

In the case of “AGCUAAAACGAAGGAUAUACAAACAUGAGGAUCACCCAUGUAUACAUGGUUUGUUGUGACCACAUGUAGAAGGUCGUACUAACA [SameState NG2 #18] (Eterna round: R96, puzzle: Same State NG 2)”, the “apparent KD of MS2 coat protein” value is, setting by setting: (input ligand: FMN 200 uM) 178 nM; under setting [1], 405 nM; (input ligand: none) 358 nM.

“AGCUAAAACGAAGGAUAUACAAACAUGAGGAUCACCCAUGUAUACAUGGUUUGUUGUGACUACAUGUAGAAGGUCGUACUAACA [SameState NG2 #17] (Eterna round: R96, puzzle: Same State NG 2)”: the “apparent KD of MS2 coat protein” value was 388 nM (input ligand: FMN 200 uM), 307 nM under setting [1] and 500 nM (input ligand: none).

“AGCUAGUACCGAGGAUAUACAUACAUGAGGAUCACCCAUGUAUACAUGAAUUUAUGAGACUACAUGUAGAAGGCGGUACUAGCA [JL SSNG2 1.21] (Eterna round: R96, puzzle: Same State NG 2)”: the “apparent KD of MS2 coat protein” value under setting [1] came to 40.1 nM.

On to “AGCUAGUACGAAGGAUAUACAAACAUGAGGAUCACCCAUGUAUACAUGGUUUAAUGAGACUACAUGUAGAAGGUCGUACUAGCA [SameState NG2 #13] (Eterna round: R96, puzzle: Same State NG 2)”, for which the “apparent KD of MS2 coat protein” value runs as follows: (input ligand: FMN 200 uM) 559 nM; under setting [1], 423 nM; (input ligand: none) 1030 nM.

As to “AGCUAGUACGAAGGAUAUACAAACAUGAGGAUCACCCAUGUAUACAUGGUUUGAUGAGACUACAUGUAGAAGGUCGUACUAGCA [SameState NG2 #14] (Eterna round: R96, puzzle: Same State NG 2)”, the “apparent KD of MS2 coat protein” value under setting [1] worked out at 176 nM.

On to “AGCUAUCGAAAACGAUAGCAAAAGCAUGUACAUGAGGAUCACCCAUGUCAUGUACAAGCUUUUUGCUCGUCUUGAAA [Zipper 23 - 9] (Eterna round: R96, puzzle: Sensor for hsa-mir-208a)”, for which the “apparent KD of MS2 coat protein” value reads like this: (input ligand: FMN 200 uM) 496 nM; under setting [1], 16.6 nM; (input ligand: none) 824 nM.

Consider “AGCUAUCGAAAACGAUAGCAAAAGCAUGUACAUGAGGAUCACCCAUGUCAUGUACAAGCUUUUUGCUCGUCUUGAAA [Zipper 23 - 9] (puzzle: Sensor for hsa-mir-208a)”, for which the “apparent KD of MS2 coat protein” value reads like this: under setting [3], 132 nM; under setting [2], 13 nM; under setting [4], 1390 nM.

With “AGCUAUCGAAAACGAUAGCAAAAGCAUGUACAUGAGGAUCACCCAUGUCAUGUACAAGCUUUUUGCUCGUUUUAAAA [Zipper 23 - 15] (puzzle: Sensor for hsa-mir-208a)”, the “apparent KD of MS2 coat protein” value is 20.1 nM under setting [3], 37.8 nM under setting [2] and 52.5 nM under setting [4].

As for “AGCUAUCGCGUACGAUAGCUGAAGCAUGUACAUGAGGAUCACCCAUGUCAUGUACAGGCUUUUUGCUCGUCUUAUUG [JL-shm-2.27 JL mod] (puzzle: Sensor for hsa-mir-208a)”, the “apparent KD of MS2 coat protein” value worked out at 770 nM under setting [3], 16.4 nM under setting [2] and 625 nM under setting [4].

For the sequence “AGCUAUUAAUCAGGAUAUAGGGACAUGAGGAUCACCCAUGUGUACAUGAGUAAAUGUGAUCACGUCUAGAAGGGAUUACUAACA [SameState NG2 #38] (Eterna round: R96, puzzle: Same State NG 2)”, the “apparent KD of MS2 coat protein” value amounted to 184 nM (input ligand: FMN 200 uM), 92.9 nM under setting [1] and 133 nM (input ligand: none).

Regarding “AGCUAUUAAUCAGGAUAUAGUGACAUGAGGAUCACCCAUGUAUUGAUGAUUAAAUGUGGUCACCACUAGAAGGGAUUACUAACA [SameState NG2 #48] (Eterna round: R96, puzzle: Same State NG 2)”, the “apparent KD of MS2 coat protein” value turned out to be 23.2 nM (input ligand: FMN 200 uM), 23.8 nM under setting [1] and 26.9 nM (input ligand: none).

On to “AGCUAUUAAUCAGGAUAUAGUGACAUGAGGAUCACCCAUGUAUUGAUGAUUAAAUGUGGUCGCCGCUAGAAGGGAUUACUAACA [SameState NG2 #46] (Eterna round: R96, puzzle: Same State NG 2)”, for which the “apparent KD of MS2 coat protein” value (input ligand: FMN 200 uM) was determined as 35.2 nM, the “apparent KD of MS2 coat protein” value under setting [1] worked out at 23.2 nM and the “apparent KD of MS2 coat protein” value (input ligand: none) amounted to 30.7 nM.

With “AGCUAUUAAUCAGGAUAUGGUCACAUGAGGAUCACCCAUGUAUAGAUGAUUGAAUGUGGUCUAAACUAGAAGGGAUUGCUAACA [SameState NG2 #57] (Eterna round: R96, puzzle: Same State NG 2)”, the “apparent KD of MS2 coat protein” value runs as follows: (input ligand: FMN 200 uM) 971 nM; under setting [1], 232 nM; (input ligand: none) 745 nM.

With “AGCUAUUAAUCAGGAUAUGGUGACAUGAGGAUCACCCAUGUAUAGAUGAUUAAAUGUGGUCUAAACUAGAAGGGAUUGCUAACA [SameState NG2 #55] (Eterna round: R96, puzzle: Same State NG 2)”, the “apparent KD of MS2 coat protein” value (input ligand: FMN 200 uM) was found to be 214 nM, the “apparent KD of MS2 coat protein” value under setting [1] was determined as 247 nM and the “apparent KD of MS2 coat protein” value (input ligand: none) worked out at 219 nM.

Regarding “AGGAAGGAGACUGAGGAUAUCGUUGAGAGGACAUGAGGAUCACCCAUGUGUAUAGGAUUGGAGAACGAGAAGGCAGAGGAGUGGG [JR_SS2_Sub047] (puzzle: Same State 2)”, the “apparent KD of MS2 coat protein” value was 58 nM under setting [3], 76.2 nM under setting [2] and 101 nM under setting [4].

On to “AGGCUCAGACGAGGAUAUACGUGGUCACAUGAGGAUCACCCAUGUCUCGAGCUUCGGCUCGAGGCGUAGAAGGUGUCUGAGCCA [SSNG2/6-C1] (Eterna round: R96, puzzle: Same State NG 2)”, for which the “apparent KD of MS2 coat protein” value reads like this: (input ligand: FMN 200 uM) 195 nM; under setting [1], 406 nM; (input ligand: none) 609 nM.

For “AGGCUCAGACGAGGAUAUAUGCGAUCACAUGAGGAUCACCCAUGUCUCGAGCUUCGGCUCGAGGCAUAGAAGGCGUCUGAGCCA [SSNG2/4-A1] (Eterna round: R96, puzzle: Same State NG 2)”, the “apparent KD of MS2 coat protein” value was determined as 16.4 nM (input ligand: FMN 200 uM), 31.2 nM under setting [1] and 38.4 nM (input ligand: none).

On to “AGGCUCAGACGAGGAUAUAUGUCUCGAGCUUCGGCUCGAGACAUGAGGAUCACCCAUGUAAUAACAUAGAAGGUGUCUGAGCCA [SSNG2/1-C1] (Eterna round: R96, puzzle: Same State NG 2)”, for which the “apparent KD of MS2 coat protein” value (input ligand: FMN 200 uM) is 49.1 nM, the “apparent KD of MS2 coat protein” value under setting [1] is 208 nM and the “apparent KD of MS2 coat protein” value (input ligand: none) is 253 nM.

For “AGGCUCAGACGAGGAUAUAUGUGAUCACAUGAGGAUCACCCAUGUCUCGAGCUUCGGCUCGAGACAUAGAAGGUGUCUGAGCCA [SSNG2/3-C1] (Eterna round: R96, puzzle: Same State NG 2)”, the “apparent KD of MS2 coat protein” value is, setting by setting: (input ligand: FMN 200 uM) 76.4 nM; under setting [1], 3.03 nM; (input ligand: none) 32.3 nM.

As to “AGGCUCAGACGAGGAUAUGAUCAUGGCGCUUCGGCGCAUACAUGAGGAUCACCCAUGUAGGGUGAUCAGAAGGUGUCUGAGCCA [SSNG2/8-B1] (Eterna round: R96, puzzle: Same State NG 2)”, the “apparent KD of MS2 coat protein” value was determined as 92.1 nM (input ligand: FMN 200 uM), 505 nM under setting [1] and 1210 nM (input ligand: none).

With “AGGCUCAGACUAGGAUAUAUGCGAUCACAUGAGGAUCACCCAUGUCUCGAGCUUCGGCUCGAGGCAUAGAAGGAGUCUGAGCCA [SSNG2/4-D1] (Eterna round: R96, puzzle: Same State NG 2)”, the “apparent KD of MS2 coat protein” value runs as follows: (input ligand: FMN 200 uM) 17.1 nM; under setting [1], 30.8 nM; (input ligand: none) 57 nM.

Take “AGGCUCAGAGCAGGAUAUAUGUAAUAACAUGAGGAUCACCCAUGUGUCGAGCUUCGGCUCGACACAUAGAAGGGCUCUGAGCCA [SSNG2/2-B1] (Eterna round: R96, puzzle: Same State NG 2)”: the “apparent KD of MS2 coat protein” value was found to be 16.9 nM (input ligand: FMN 200 uM), 28.8 nM under setting [1] and 45.9 nM (input ligand: none).

“AGGCUCGUGCUAGGAUAUCUAGGAUAUGGACGAGGAUUACCCGAGCAGCAUUAGCGCACCAGAGGAGAGAAGGAGCGACAUGCG [pwkr ssNG2 2F5 2FMN.11] (Eterna round: R96, puzzle: Same State NG 2)”: the “apparent KD of MS2 coat protein” value is, setting by setting: (input ligand: FMN 200 uM) 5.78 nM; under setting [1], 4.91 nM; (input ligand: none) 16 nM.

“AGGGAGGAAGCUGAGGAUAUCGUAAGGAGGACAUGAGGAUCACCCAUGUGUGUAGAAUUGGAGGACGAGAAGGCAGAGGAGUGGG [JR_SS2_Sub053] (puzzle: Same State 2)”: the “apparent KD of MS2 coat protein” value is, setting by setting: under setting [3], 34 nM; under setting [2], 21.3 nM; under setting [4], 37 nM.

Consider “AGGUAACAUGAGGAUCACCCAUGUAAGGUGAACGUAGGAUAUCGAGGAGGUAGGGUAGGCCGAGAAGGACGAGGAG [JR_SS1_Sub093] (puzzle: Same State 1)”, for which, under setting [2], the “apparent KD of MS2 coat protein” value was 221 nM.
